Paper PMC10783490, “Biochemical and cellular insights into the Baz2B protein, a non-catalytic subunit of the chromatin remodeling complex” (Nucleic Acids Research, 2023)

Tests used:
Settings in all cases: protein: recombinant; tags: His6
TAM-AT1-AT2 Baz2B [1] = biological target: T1, TAM-AT1-AT2 Baz2B (Homo sapiens, UniProt Q9UIF8 721-884); test: EMSA; mutant series; EMSA: 20 mM HEPES pH 7.5, 30 mM KCl, 1 mM EDTA, 10 mM (NH4)2SO4, 1 mM DTT, 4 C, 10 nM probe; MST: same plus 0.1 ug/ml BSA, 5 nM probe, 25 C; GST-AT-hook and bromodomain EMSA as in cited refs
T1 sequence: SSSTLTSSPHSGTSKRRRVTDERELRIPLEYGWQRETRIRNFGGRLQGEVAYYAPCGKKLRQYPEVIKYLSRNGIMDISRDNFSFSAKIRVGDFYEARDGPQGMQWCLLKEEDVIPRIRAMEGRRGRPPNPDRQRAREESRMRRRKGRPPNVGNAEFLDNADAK

TAM-AT1-AT2 Baz2B [2] = biological target: T1, TAM-AT1-AT2 Baz2B; test: MST; EMSA: 20 mM HEPES pH 7.5, 30 mM KCl, 1 mM EDTA, 10 mM (NH4)2SO4, 1 mM DTT, 4 C, 10 nM probe; MST: same plus 0.1 ug/ml BSA, 5 nM probe, 25 C; GST-AT-hook and bromodomain EMSA as in cited refs
TAM-AT1-AT2 Baz2B L766A = biological target: T2, TAM-AT1-AT2 Baz2B L766A (Homo sapiens, UniProt Q9UIF8 721-884, L766A); test: EMSA; EMSA: 20 mM HEPES pH 7.5, 30 mM KCl, 1 mM EDTA, 10 mM (NH4)2SO4, 1 mM DTT, 4 C, 10 nM probe; MST: same plus 0.1 ug/ml BSA, 5 nM probe, 25 C; GST-AT-hook and bromodomain EMSA as in cited refs
T2 sequence: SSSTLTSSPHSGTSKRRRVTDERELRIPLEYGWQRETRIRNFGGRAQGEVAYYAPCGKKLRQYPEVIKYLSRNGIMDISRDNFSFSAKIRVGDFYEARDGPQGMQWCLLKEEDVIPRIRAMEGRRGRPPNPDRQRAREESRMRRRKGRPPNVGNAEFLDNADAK

TAM-AT1-AT2 Baz2B R760E = biological target: T3, TAM-AT1-AT2 Baz2B R760E (Homo sapiens, UniProt Q9UIF8 721-884, R760E); test: as above
T3 sequence: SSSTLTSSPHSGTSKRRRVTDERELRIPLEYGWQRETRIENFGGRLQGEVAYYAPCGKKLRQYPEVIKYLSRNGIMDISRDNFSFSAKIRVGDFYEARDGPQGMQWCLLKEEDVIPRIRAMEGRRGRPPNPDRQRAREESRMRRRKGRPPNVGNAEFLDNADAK

TAM-AT1-AT2 Baz2B Q767A = biological target: T4, TAM-AT1-AT2 Baz2B Q767A (Homo sapiens, UniProt Q9UIF8 721-884, Q767A); test: as above
T4 sequence: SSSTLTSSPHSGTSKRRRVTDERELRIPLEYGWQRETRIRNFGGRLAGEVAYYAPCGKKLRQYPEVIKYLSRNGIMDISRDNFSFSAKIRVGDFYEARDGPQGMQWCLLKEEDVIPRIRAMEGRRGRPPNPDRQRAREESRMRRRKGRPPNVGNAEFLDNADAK

TAM-AT1-AT2 Baz2B R765E = biological target: T5, TAM-AT1-AT2 Baz2B R765E (Homo sapiens, UniProt Q9UIF8 721-884, R765E); test: as above
T5 sequence: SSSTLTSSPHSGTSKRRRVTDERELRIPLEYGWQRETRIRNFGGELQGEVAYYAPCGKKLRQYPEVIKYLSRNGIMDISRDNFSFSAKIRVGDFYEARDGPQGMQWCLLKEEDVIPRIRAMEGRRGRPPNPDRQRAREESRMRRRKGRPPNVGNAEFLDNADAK

TAM-AT1-AT2 Baz2B [3] = biological target: T1, TAM-AT1-AT2 Baz2B; test: as above
TAM-AT1-AT2 Baz2B R837E = biological target: T6, TAM-AT1-AT2 Baz2B R837E (Homo sapiens, UniProt Q9UIF8 721-884, R837E); test: as above
T6 sequence: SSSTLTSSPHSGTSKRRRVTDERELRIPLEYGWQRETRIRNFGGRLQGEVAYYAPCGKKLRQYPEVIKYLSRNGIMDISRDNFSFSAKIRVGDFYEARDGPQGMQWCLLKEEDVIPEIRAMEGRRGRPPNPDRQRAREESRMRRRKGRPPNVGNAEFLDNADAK

TAM-AT1-AT2 Baz2B R781E = biological target: T7, TAM-AT1-AT2 Baz2B R781E (Homo sapiens, UniProt Q9UIF8 721-884, R781E); test: as above
T7 sequence: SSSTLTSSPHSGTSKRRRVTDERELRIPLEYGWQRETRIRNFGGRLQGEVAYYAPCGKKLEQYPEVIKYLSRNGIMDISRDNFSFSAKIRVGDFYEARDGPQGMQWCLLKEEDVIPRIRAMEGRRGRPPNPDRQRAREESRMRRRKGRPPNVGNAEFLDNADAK

ATCAGTTCTCCGGGTTGTCAGGTCGACCAGTTGTTCCTTTGAGGT (ssDNA) [45 nt ssDNA FLP015]
Kd (TAM-AT1-AT2 Baz2B [1]): 228 ± 97.8 nM
Kd (TAM-AT1-AT2 Baz2B [2]): 160 nM
Kd (TAM-AT1-AT2 Baz2B L766A): 275 ± 82.9 nM
Kd (TAM-AT1-AT2 Baz2B R760E): 161 ± 44.7 nM
Kd (TAM-AT1-AT2 Baz2B Q767A): 206 ± 81 nM
Kd (TAM-AT1-AT2 Baz2B R765E): 93.1 ± 13 nM
Kd (TAM-AT1-AT2 Baz2B [3]): 122 nM
Kd (TAM-AT1-AT2 Baz2B R837E): 248 ± 84.2 nM
Kd (TAM-AT1-AT2 Baz2B R781E): 220 ± 110 nM
